B1: Hairpin Ribozyme (parent)
chain: GUCCUCUUUCACGUGCGCGUGAAAGAGAGAAGUGAACCAGAGAAACACACGUUGUGGUAUAUUACCUGGUA

Here are results for 167 variants from the RNAGym collection of RNA variant scans (doi:10.7554/elife.80360).

The variants in this series derive from B1. Nature of the series: self-cleavage, relative activity (ratio to wild type); higher = more cleavage; co-transcriptional.
On to G17A A45G, for which the self-cleavage stood at 0.15.

In the case of G40C A64U, the self-cleavage came to 0.125.

Take A47G G54C: the self-cleavage came to 0.266.

Turning to A30U U33A, the self-cleavage stood at 0.0677.

For the variant G51A C66A, the self-cleavage stood at 0.344.

In the case of G1U G56C, the self-cleavage worked out at 0.229.

On to U2G C46G, for which the self-cleavage stood at 0.12.

In the case of G19C U53A, the self-cleavage came to 0.861.

Turning to A36G G56A, the self-cleavage came out at 0.146.

Take G13A U52A: the self-cleavage came out at 1.01.

On to G29U A71C, for which the self-cleavage was determined as 0.152.

With A30G A36G, the self-cleavage worked out at 0.0448.

Take C10U U60A: the self-cleavage stood at 0.67.

Consider C37U U67A, for which the self-cleavage stood at 0.175.

Turning to G19C C46A, the self-cleavage came out at 0.303.

Turning to U9C G54U, the self-cleavage stood at 0.539.

A44G G51U: the self-cleavage amounted to 0.175.

Turning to G25A A61U, the self-cleavage came to 0.0154.

In the case of G32U U33A, the self-cleavage was found to be 0.148.

Consider A45C A49C, for which the self-cleavage was determined as 0.142.

On to U14G U62G, for which the self-cleavage was 0.106.

For the variant G1C A11G, the self-cleavage came to 0.194.

As for A22G U63C, the self-cleavage came to 0.245.

Regarding G13C A22U, the self-cleavage was found to be 0.528.

As for C16G U67G, the self-cleavage was found to be 0.191.

In the case of C16A C66A, the self-cleavage came to 0.108.

In the case of U2G A39U, the self-cleavage was found to be 0.162.

With C38U G54U, the self-cleavage was 0.336.

Take C4A G13A: the self-cleavage turned out to be 0.193.

Consider C10U C46A, for which the self-cleavage was determined as 0.15.

Take C16U G25C: the self-cleavage came out at 0.63.

With C18U U58C, the self-cleavage stood at 1.17.

C12G G25A: the self-cleavage was 0.524.

For G19U C66A, the self-cleavage came out at 0.272.

Turning to U7A G25U, the self-cleavage turned out to be 0.229.

As to A41G C65A, the self-cleavage turned out to be 0.693.

Turning to G32C C46G, the self-cleavage came out at 0.0694.

As to G25U U52C, the self-cleavage stood at 0.626.

Regarding A22C G54C, the self-cleavage is 0.317.

Consider U5A A23C, for which the self-cleavage was 0.436.

U2C U52G: the self-cleavage is 0.0756.

On to U9A A30U, for which the self-cleavage worked out at 0.195.

As for G21A A36G, the self-cleavage was 0.959.

As to A39G A59U, the self-cleavage was found to be 0.153.

Regarding A49C A64G, the self-cleavage was 0.0856.

Turning to A11U U63C, the self-cleavage was 0.122.

As to C46G C66A, the self-cleavage turned out to be 0.253.

As to U5C A28U, the self-cleavage was found to be 0.277.

Turning to G34A U55A, the self-cleavage stood at 0.518.

Turning to C12G A43C, the self-cleavage was found to be 0.125.

C10A G17C: the self-cleavage was found to be 0.489.

Regarding C65G G69A, the self-cleavage was 0.138.

For the variant A30C G56A, the self-cleavage is 0.194.

In the case of A28U U67A, the self-cleavage came out at 0.0994.

Take G15U A23C: the self-cleavage came out at 1.14.

For the variant A45C C48U, the self-cleavage stood at 0.145.

On to A31G U70C, for which the self-cleavage came to 0.751.

C4U U7C: the self-cleavage is 0.193.

As to A23G G32U, the self-cleavage came out at 0.0923.

U33G C38U: the self-cleavage is 0.204.

As to C12A A47U, the self-cleavage came to 0.132.

Take A28U A45C: the self-cleavage was 0.0951.

G15C G19U: the self-cleavage came to 0.953.

With G1A C6G, the self-cleavage is 0.193.

For G17A A36U, the self-cleavage is 0.544.

A28C G29A: the self-cleavage amounted to 0.199.

Take G17U A44C: the self-cleavage amounted to 0.152.

With U60C A71U, the self-cleavage was found to be 1.18.

G15C A47C: the self-cleavage was 0.295.

Take A11G G42A: the self-cleavage worked out at 0.201.

Take G27U G32C: the self-cleavage is 0.129.

As for U8A A26G, the self-cleavage stood at 0.606.

As for C37G A71U, the self-cleavage was 0.216.

With U2G U55C, the self-cleavage worked out at 0.168.

Regarding G51C A59U, the self-cleavage is 0.172.

Regarding U7A A61U, the self-cleavage stood at 0.167.

Turning to G19U A44U, the self-cleavage worked out at 0.124.

A24G A45G: the self-cleavage worked out at 0.104.

For G40A A61G, the self-cleavage came to 0.139.

For G42C A47G, the self-cleavage was found to be 0.116.

With C18U A61G, the self-cleavage is 0.276.

In the case of G27A G69U, the self-cleavage was 0.182.

Turning to C37A, the self-cleavage was determined as 0.345.

Consider A28C A49G, for which the self-cleavage turned out to be 0.173.

Consider U8A U14C, for which the self-cleavage stood at 0.845.

Consider G1A G17U, for which the self-cleavage worked out at 0.127.

As to C48U A71G, the self-cleavage was 0.242.

With G15C A41U, the self-cleavage is 1.28.

In the case of C38G G56C, the self-cleavage came to 0.0901.

With U9C U33A, the self-cleavage came out at 0.0961.

Regarding A41U G42U, the self-cleavage is 0.325.

For the variant C10G G54U, the self-cleavage came to 0.471.

For C65U C66A, the self-cleavage came to 0.172.

As for G51C U67A, the self-cleavage is 0.123.

U7C A49G: the self-cleavage stood at 0.478.

On to A24G U70C, for which the self-cleavage worked out at 0.913.

On to G19C G42C, for which the self-cleavage was determined as 0.329.

In the case of U2A A49U, the self-cleavage turned out to be 0.0799.

In the case of A44C C46A, the self-cleavage worked out at 0.141.

For C18A G27A, the self-cleavage came out at 0.534.

Consider C38U U60A, for which the self-cleavage stood at 0.428.

Take C6A C48A: the self-cleavage is 0.084.

Regarding G57C G69U, the self-cleavage came out at 0.0905.

For the variant U53G U55C, the self-cleavage is 0.369.

Consider U2G U62A, for which the self-cleavage is 0.0977.

For G51U C65G, the self-cleavage came to 0.354.

In the case of A22C G69A, the self-cleavage worked out at 0.448.

Turning to A11U A71U, the self-cleavage was determined as 0.701.

On to U52C U62A, for which the self-cleavage is 0.32.

On to A59U A71C, for which the self-cleavage was found to be 0.153.

On to G32A A59G, for which the self-cleavage is 0.189.

Regarding G13C U53A, the self-cleavage is 0.747.

As for U5C U62C, the self-cleavage came out at 0.0289.

Consider U8A C65A, for which the self-cleavage turned out to be 0.63.

Turning to G42C A43U, the self-cleavage came to 0.106.

Turning to G40U U58G, the self-cleavage is 0.183.

In the case of G19A A43U, the self-cleavage is 0.102.

A11G U20G: the self-cleavage amounted to 0.982.

In the case of A11U A64U, the self-cleavage was found to be 0.152.

As to A11U A64C, the self-cleavage is 0.175.

As for C38U A43U, the self-cleavage turned out to be 0.153.

Take A24C A59U: the self-cleavage came to 0.204.

For C12G U55G, the self-cleavage came to 0.322.

Regarding G19C A49G, the self-cleavage stood at 0.366.

For the variant G51U U70G, the self-cleavage amounted to 0.887.

In the case of C3U G42A, the self-cleavage turned out to be 0.123.

For the variant U7C A30C, the self-cleavage amounted to 0.121.

On to C10G A41U, for which the self-cleavage stood at 1.09.

In the case of G29U A47G, the self-cleavage turned out to be 0.0517.

Regarding A31U A44G, the self-cleavage was found to be 0.215.

For the variant G34U C37A, the self-cleavage was 0.946.

On to A49U G54A, for which the self-cleavage stood at 0.477.

On to G15A A36C, for which the self-cleavage is 0.815.

On to C4U U9A, for which the self-cleavage was 0.202.

In the case of A23G G51A, the self-cleavage is 0.781.

As for C50A A64G, the self-cleavage was found to be 0.211.

Regarding C50U G57U, the self-cleavage stood at 0.183.

On to G34U A47G, for which the self-cleavage is 0.444.

Take G1A G56A: the self-cleavage turned out to be 0.181.

Regarding C16A C37U, the self-cleavage came to 0.519.

For G32U C66U, the self-cleavage came to 0.194.

In the case of A36C U53C, the self-cleavage stood at 0.953.

On to A11C G42A, for which the self-cleavage is 0.278.

As for G40U C48A, the self-cleavage amounted to 0.0709.

On to U55A U58A, for which the self-cleavage was 0.273.

As to A23C U60G, the self-cleavage stood at 0.61.

Take A41C C50G: the self-cleavage was 0.667.

Turning to G29A C46G, the self-cleavage stood at 0.0584.

For G15U G54U, the self-cleavage worked out at 0.632.

In the case of G13A G69U, the self-cleavage is 0.24.

Consider U2G U70A, for which the self-cleavage is 0.191.

As for A36U C66A, the self-cleavage came out at 0.114.

As to G29C C48A, the self-cleavage came out at 0.136.

As to U20A G25A, the self-cleavage is 0.453.

In the case of G19C A28C, the self-cleavage was found to be 0.304.

On to C6G U62G, for which the self-cleavage was 0.159.

As to A22C U70G, the self-cleavage is 0.763.

Consider C3U G17U, for which the self-cleavage is 0.473.

With A23C C66A, the self-cleavage came out at 0.218.

For the variant U8A A28C, the self-cleavage turned out to be 0.385.

As for C18A G40U, the self-cleavage was 0.174.

A28G G40C: the self-cleavage was 0.166.

In the case of A43G G54U, the self-cleavage came to 0.156.

On to A43G U52C, for which the self-cleavage was 0.064.

For U5A G29A, the self-cleavage amounted to 0.156.

Turning to A49C G54U, the self-cleavage stood at 0.216.

Regarding C18A U52C, the self-cleavage came to 1.05.
